Reference: patent US20190298770A1 (IOVANCE BIOTHERAPEUTICS, published 2019)

How the values were obtained:
[1] = target: T1, Programmed Death 1 Ligand 1 (PD-L1) (human, UniProt Q9NZQ7 19-290); assay: flow cytometry of 293-PD-L1 stained with 10 fold concentrated supernatant of TIL line M1015, Alexa 647 anti-human Fcγ [panel C]
T1 construct: also called CD274; B7-H1

[2] = target: T1, Programmed Death 1 Ligand 1 (PD-L1); assay: flow cytometry on EL4 PD-L1 cells, goat anti-human FITC, % of PD-L1 positive cells

T1 sequence (Q9NZQ7 19-290): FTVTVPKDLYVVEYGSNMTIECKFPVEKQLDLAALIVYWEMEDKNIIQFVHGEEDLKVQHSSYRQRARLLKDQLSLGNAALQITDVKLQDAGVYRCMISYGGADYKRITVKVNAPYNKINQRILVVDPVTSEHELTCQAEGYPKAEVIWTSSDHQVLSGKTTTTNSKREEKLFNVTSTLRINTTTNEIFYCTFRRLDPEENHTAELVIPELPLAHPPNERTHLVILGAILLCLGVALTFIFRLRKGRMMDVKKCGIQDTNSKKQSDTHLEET

| Molecule | % of cells in the upper left (PDL1 positive) quadrant [1] | binding result [2] |
| --- | --- | --- |
| FMC63-scFV-Fc (Fc fusion) | 1.02% |  |
| anti-PD-L1 ScFV clone 19H9 (scFv, also called 19H9-scFV; scFV 19H9) scFv: QVQLQESGGGLVKPGGSLRLSCAASGFTFSSYSMNWVRQAPGKGLEWVSGINTAGDTHYPESVKGRFTISRDNARNSLNLQMNSLRAEDTAVYYCVRERVEREYSGYDAFDIWGQGTTVTVSAGGGGSGGGGSGGGGSGAPNFMLTQPHSVSESLGKTVTISCTGSSGSIARKFVQWYQQRPGSSPTTVIYENNQRPSGVSDRFSGSIGSSSNSASLTISGLKTEDEADYYCQSYDSSNVVFGGGTKVTVL |  | binds |
| anti-PD-L1 ScFV clone 38A1 (scFv, also called 38A1-scFV; scFV 38A1) scFv: EVQLVESGGGLVQPGGSLRLSCAASGFTFSNYAMSWVRQAPGKGLEWVSTISGSGGTTYYADSVKGRFTISRDNSKNTLYLQMNSLRVEDTAVYYCAKDWFRSSSPDAFDIWGQGTTVTVSAGGGGSGGGGSGGGGSGAPSYVLTQPPSVSVAPGQTARITCGGNNIGRKIVHWYQQRPGQAPVLVIYYDTDRPAGIPERFSGSNSGNMATLTISTVGAGDEADYYCQVWDTGSDHVVFGGGTKLTVL |  | binds |
